Laboratory results from PMC2199935.

Legend:
[1] = target: beta-catenin (canine (endogenous in MDCK)) (UniProt B6V8E6); assay: co-IP
[2] = target: p120/p100 (anti-p120 immunoreactive material), canine (canine (endogenous in MDCK)); assay: co-IP

Molecule | percent of the pool in association, normalised to 100% efficiency [1] [%] | percent of the pool in association, normalised to 100% efficiency [2] [%]
p120/p100 (anti-p120 immunoreactive material), canine (natural protein) | 21 | 
beta-catenin (natural protein) MATQADLMELDMAMEPDRKAAVSHWQQQSYLDSGIHSGATTTAPSLSGKGNPEEEDVDTTQVLYEWEQGFSQSFTQEQVADIDGQYAMTRAQRVRAAMFPETLDEGMQIPSTQFDAAHPTNVQRLAEPSQMLKHAVVNLINYQDDAELATRAIPELTKLLNDEDQVVVNKAAVMVHQLSKKEASRHAIMRSPQMVSAIVRTMQNTNDVETARCTAGTLHNLSHHREGLLAIFKSGGIPALVKMLGSPVDSVLFYAITTLHNLLLHQEGAKMAVRLAGGLQKMVALLNKTNVKFLAITTDCLQILAYGNQESKLIILASGGPQALVNIMRTYTYEKLLWTTSRVLKVLSVCSSNKPAIVEAGGMQALGLHLTDPSQRLVQNCLWTLRNLSDAATKQEGMEGLLGTLVQLLGSDDINVVTCAAGILSNLTCNNYKNKMMVCQVGGIEALVRTVLRAGDREDITEPAICALRHLTSRHQEAEMAQNAVRLHYGLPVVVKLLHPPSHWPLIKATVGLIRNLALCPANHAPLREQGAIPRLVQLLVRAHQDTQRRTSMGGTQQQFVEGVRMEEIVEGCTGALHILARDVHNRIVIRGLNTIPLFVQLLYSPIENIQRVAAGVLCELAQDKEAAEAIEAEGATAPLTELLHSRNEGVATYAAAVLFRMSEDKPQDYKKRLSVELTSSLFRTEPMAWNETADLGLDIGAQGEPLGYRQDDPSYRSFHSGGYGQDALGMDPMMEHEMGGHHPGADYPVDGLPDLGHAQDLMDGLPPGDSNQLAWFDTDL |  | 24
